Assay results published in patent US20220326223.

Molecular target: human APP (695 amino acid isoform), P05067

B1: human ADAMTS4 (A disintegrin and metalloproteinase with thrombospondin motifs 4) (protein)
chain: FASLSRFVETLVVADDKMAAFHGAGLKRYLLTVMAAAAKAFKHPSIRNPVSLVVTRLVILGSGEEGPQVGPSAAQTLRSFCAWQRGLNTPEDSDPDHFDTAILFTRQDLCGVSTCDTLGMADVGTVCDPARSCAIVEDDGLQSAFTAAHELGHVFNMLHDNSKPCISLNGPLSTSRHVMAPVMAHVDPEEPWSPCSARFITDFLDNGYGHCLLDKPEAPLHLPVTFPGKDYDADRQCQLTFGPDSRHCPQLPPPCAALWCSGHLNGHAMCQTKHSPWADGTPCGPAQACMGGRCLHMDQLQDFNIPQAGGWGPWGPWGDCSRTCGGGVQFSSRDCTRPVPRNGGKYCEGRRTRFRSCNTEDCPTGSALTFREEQCAAYNHRTDLFKSFPGPMDWVPRYTGVAPQDQCKLTCQARALGYYYVLEPRVVDGTPCSPDSSSVCVQGRCIHAGCDRIIGSKKKFDKCMVCGGDGSGCSKQSGSFRKFRYGYNNVVTIPAGATHILVRQQGNAGHRSIYLALKLPDGSYALNGEYTLMPSPTDVVLPGAVSLRYSGATAASETLSGHGPLAQPLTLQVLVAGNPQDTRLRYSFFVPRPTPSTPRPTPQDWLHRRAQILEILRRRPWAGRK
production amounts of APP669-711 (Aβ(-3-40)) and APP669-709 (Aβ(-3-38)) in culture supernatant (IP-MS), ADAMTS4 vector:empty vector 10:1 in APP stable HEK: tended to be rather slightly increased
